These results are taken from patent publication US20100015126A1 (published 2010).

In experiment [1] the target is T1, fibrin (immobilized, formed from fibrinogen with factor IIa) (UniProt P02671 36-629; P02675 45-491; P02679 27-437).
T1 sequence (looked up) 1: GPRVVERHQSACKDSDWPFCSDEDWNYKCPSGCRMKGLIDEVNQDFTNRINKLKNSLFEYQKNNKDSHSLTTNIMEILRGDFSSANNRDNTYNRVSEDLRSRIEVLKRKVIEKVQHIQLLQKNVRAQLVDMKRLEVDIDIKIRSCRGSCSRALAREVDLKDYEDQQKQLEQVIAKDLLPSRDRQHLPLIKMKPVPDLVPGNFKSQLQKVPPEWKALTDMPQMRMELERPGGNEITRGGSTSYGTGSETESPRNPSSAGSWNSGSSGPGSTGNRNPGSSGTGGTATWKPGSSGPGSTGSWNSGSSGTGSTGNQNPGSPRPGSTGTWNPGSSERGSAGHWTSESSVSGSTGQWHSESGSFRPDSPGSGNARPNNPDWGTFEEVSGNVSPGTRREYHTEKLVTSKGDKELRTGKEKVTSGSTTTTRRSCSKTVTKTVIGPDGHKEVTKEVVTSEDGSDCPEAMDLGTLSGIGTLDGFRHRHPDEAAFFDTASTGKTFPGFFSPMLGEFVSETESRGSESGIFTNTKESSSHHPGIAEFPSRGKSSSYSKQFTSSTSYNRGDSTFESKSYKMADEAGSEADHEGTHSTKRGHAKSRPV
T1 sequence (looked up) 2: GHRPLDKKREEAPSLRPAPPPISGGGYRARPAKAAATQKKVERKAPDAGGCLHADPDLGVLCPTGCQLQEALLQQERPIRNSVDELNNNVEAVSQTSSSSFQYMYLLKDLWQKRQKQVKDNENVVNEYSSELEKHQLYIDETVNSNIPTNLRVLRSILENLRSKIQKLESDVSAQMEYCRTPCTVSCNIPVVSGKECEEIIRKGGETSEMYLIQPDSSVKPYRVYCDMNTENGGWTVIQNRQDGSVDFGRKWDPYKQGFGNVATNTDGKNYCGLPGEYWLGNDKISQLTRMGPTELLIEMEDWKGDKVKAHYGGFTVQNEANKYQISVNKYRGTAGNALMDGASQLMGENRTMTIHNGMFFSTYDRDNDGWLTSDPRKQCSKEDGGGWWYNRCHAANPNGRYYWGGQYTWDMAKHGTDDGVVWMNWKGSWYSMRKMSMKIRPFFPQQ
T1 sequence (looked up) 3: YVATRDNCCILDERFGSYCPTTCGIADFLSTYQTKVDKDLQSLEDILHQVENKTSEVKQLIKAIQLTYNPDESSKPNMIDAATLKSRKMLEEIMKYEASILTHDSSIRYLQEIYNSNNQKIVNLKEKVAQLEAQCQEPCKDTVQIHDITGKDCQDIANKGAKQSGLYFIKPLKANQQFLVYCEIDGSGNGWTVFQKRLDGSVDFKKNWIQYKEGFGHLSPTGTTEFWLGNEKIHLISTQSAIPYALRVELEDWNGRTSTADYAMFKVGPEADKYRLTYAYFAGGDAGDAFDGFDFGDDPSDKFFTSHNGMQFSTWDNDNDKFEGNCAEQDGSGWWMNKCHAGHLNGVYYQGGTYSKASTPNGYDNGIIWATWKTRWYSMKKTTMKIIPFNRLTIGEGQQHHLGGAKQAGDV
Description: direct ELISA, fibrin formed in wells, anti-His-tag detection. For orientation: ELISA stands for enzyme-linked immunosorbent assay.

The target in experiment [2] is T2, synthetic human amyloid-β(1-42) peptide (Aβ42t=0) (human).
T2 construct: also called Aβ1-42
T2 sequence (peptide, as listed by the source limits assumed): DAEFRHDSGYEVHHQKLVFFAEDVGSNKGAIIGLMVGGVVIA
Description: direct ELISA, coated ligand, anti-His-tag detection.

Experiment [3] has as its target T3, oxidized human plasma low density lipoprotein (oxLDL) with misfolded apolipoprotein B100 (human, UniProt P04114 28-4563).
T3 construct: also called oxidized LDL
Description: direct ELISA, coated ligand, HSP60 concentration series.

Experiment [4] deals with recombinant human HSP90beta (human, UniProt P08238 1-724). Description: direct ELISA, coated ligand, HSP90 concentration series.
Sequence of recombinant human HSP90beta (P08238 whole entry): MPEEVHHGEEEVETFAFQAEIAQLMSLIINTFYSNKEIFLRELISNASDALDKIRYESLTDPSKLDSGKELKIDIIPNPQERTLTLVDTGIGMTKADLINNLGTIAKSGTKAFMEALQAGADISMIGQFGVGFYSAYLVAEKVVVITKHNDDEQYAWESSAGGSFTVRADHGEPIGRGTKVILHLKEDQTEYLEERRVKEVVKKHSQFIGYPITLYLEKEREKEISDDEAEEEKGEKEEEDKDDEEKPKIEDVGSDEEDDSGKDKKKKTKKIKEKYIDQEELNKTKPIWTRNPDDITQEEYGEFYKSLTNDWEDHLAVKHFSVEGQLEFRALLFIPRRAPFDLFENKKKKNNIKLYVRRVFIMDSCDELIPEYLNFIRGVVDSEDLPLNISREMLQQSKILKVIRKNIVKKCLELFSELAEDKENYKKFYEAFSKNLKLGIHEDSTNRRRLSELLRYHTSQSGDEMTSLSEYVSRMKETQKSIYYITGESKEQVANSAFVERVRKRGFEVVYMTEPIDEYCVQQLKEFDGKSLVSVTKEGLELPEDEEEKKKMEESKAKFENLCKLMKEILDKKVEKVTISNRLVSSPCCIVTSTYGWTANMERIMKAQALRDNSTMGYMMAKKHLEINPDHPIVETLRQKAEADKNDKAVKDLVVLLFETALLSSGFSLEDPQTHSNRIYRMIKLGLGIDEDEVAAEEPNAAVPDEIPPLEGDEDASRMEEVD

B1: recombinant human HSP60 with N-terminal His-tag (other, UniProt P10809 27-573, looked up, not shown: small tags and cut ends)
chain: AKDVKFGADARALMLQGVDLLADAVAVTMGPKGRTVIIEQSWGSPKVTKDGVTVAKSIDLKDKYKNIGAKLVQDVANNTNEEAGDGTTTATVLARSIAKEGFEKISKGANPVEIRRGVMLAVDAVIAELKKQSKPVTTPEEIAQVATISANGDKEIGNIISDAMKKVGRKGVITVKDGKTLNDELEIIEGMKFDRGYISPYFINTSKGQKCEFQDAYVLLSEKKISSIQSIVPALEIANAHRKPLVIIAEDVDGEALSTLVLNRLKVGLQVVAVKAPGFGDNRKNQLKDMAIATGGAVFGEEGLTLNLEDVQPHDLGKVGEVIVTKDDAMLLKGKGDKAQIEKRIQEIIEQLDVTTSEYEKEKLNERLAKLSDGVAVLKVGGTSDVEVNEKKDRVTDALNATRAAVEEGIVLGGGCALLRCIPALDSLTPANEDQKIGIEIIKRTLKIPAMTIAKNAGVEGSLIVEKIMQSSSEVGYDAMAGDFVNMVEKGIIDPTKVVRTALLDAAGVASLLTTAEVVVTEIPKEEKDPGMGAMGGMGGGMGGGMF
notes: mature; also called His-HSP60
For B1, the binding result in experiment [1] is reported as “binds”; in experiment [2], “binds”; in experiment [3] it was “no binding”.

B2: heat-denatured chicken ovalbumin (dOVA standard) (other, UniProt P01012 2-386, looked up)
chain: GSIGAASMEFCFDVFKELKVHHANENIFYCPIAIMSALAMVYLGAKDSTRTQINKVVRFDKLPGFGDSIEAQCGTSVNVHSSLRDILNQITKPNDVYSFSLASRLYAEERYPILPEYLQCVKELYRGGLEPINFQTAADQARELINSWVESQTNGIIRNVLQPSSVDSQTAMVLVNAIVFKGLWEKAFKDEDTQAMPFRVTEQESKPVQMMYQIGLFRVASMASEKMKILELPFASGTMSMLVLLPDEVSGLEQLESIINFEKLTEWTSSNVMEERKIKVYLPRMKMEEKYNLTSVLMAMGITDVFSSSANLSGISSAESLKISQAVHAAHAEINEAGREVVGSAEAGVDAASVSEEFRADHPFLFCIKHIATNAVLFFGRCVSP
notes: also called dOVA std; misfolded hen ovalbumin
B2: in experiment [4], the binding result is listed as “no binding”.
